In the nanobody polyreactivity screen of Harvey et al. (2022):

Assay: yeast display, Sf9 membrane polyspecificity reagent, FACS + sequencing; frameworks hold sequencing errors
Summary of the method: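 Galactose induction of a Saccharomyces cerevisiae BJ5465 synthetic nanobody display library ran 36–48 hours. The cells were then stained for 1 hour at 4 °C with 10% biotinylated, detergent-solubilized Sf9 membrane reagent, pulled down on streptavidin microbeads and FACS-sorted into low and high (top ~1%) gates on expression and reagent-binding fluorescence. Labels for polyreactivity follow the gate of origin.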

Sequence	polyreactivity (PSR sort gate)
QVQLVESGVGLVQAGGSLRLSCAASGSTIQYYAQGRYRQAPGKEREFVAAISISGGSTYYADSLKGRFTISRDNAKNTVYLQMNSLIPEDSEVYYCAARKKEYKPGKYWGQGTQVTVSS	low polyreactivity
QVQLVESGVGLVQAGGSLRLSCAASGYIFYQYAMGWYRQAPGKERELVSTISWRGGSTYYADSVKGRFTISRDNAKNTVYLQMNCLKPEDTAVYYCAARKRPYTVINGMDYWGQGTQVTVSS	low polyreactivity
QVQLVESGVGLVQAGGSLRLSCAASGYTFQINAMGWYRQAPGKERELVAAITSGGRTYYADSVKGRFTISRDNAKNTVYLQMNSLKAEDTAVYYCNKVPRRGVDYWGQGTQVTVSW	low polyreactivity
QVQLVESGVGLVQAGGSLRLSCAPSGSTFWVNGMGWYRPAPGKERELVASISQSGDNTYYADSVKGRFTISRDNAKNTVYLQMNSLKPEDTAVSYCATRYQYGGFLYYRFDDWGQGTQVTVSS	high polyreactivity
QVQLVESGVGLVQAGGSLRLSCASSGLTLNQYAIGWYRQAPGKERELVAAITRGGGSTYYADSVKGRFTISRDNAKYTVYLQMNSLKPEDTAVYYCATDNWWPTYHYQGGYYWGQGTQVTVSS	low polyreactivity
QVQLVESGVGLVQAGGSLRLSCDATGSILGINVMGWYRQAPGKEREVVAAISRRGGSTYYADSVKGRFTISRDNSKNTVYLQMNSLKPEDTAVYYCAAGTSYYYGSYRFYYWGQGTQVTVSS	high polyreactivity
QVQLVESGVGLVQAGGSLRLSSAASGFTFIYYAMGWYRQAPGKERELVAAITSGGNTYYADSVKGRFTISRDNAKNTDYLQMNSLTPEDPAVYYCNKVPHREWVGGYDYWGQGTQVTVSS	low polyreactivity
QVQLVESGVGLVQAGGSLRLSSAASGRILRQYAMGWYRQAPGKERELVAAITSSGGSTYYADSVKGRFTISRDNAKNTVYLQMNSLKPEDTAVYYCNARLRGAKYDYWGQGTQVTVSS	high polyreactivity
QVQLVESGVGLVQAGGSLRLSSAASGRTFPSNNMGWYRQAPGKERELVAAISKNGGSTYYADSVKGRFTISRDNAMNTVYLQMNRLKPEDTAVYYWAATGVSSKRLASQRKLDYWGQGSQVTVSS	high polyreactivity
QVQLVESGVGLVQAGGSLRLSSDASGSIFGTYAMGWYRQAPGKERELVAAITGNGGRTYYADSVKGRFTISRDNAKNTVYLQMHSLKAEDTAVYSCAISSSRGGFYYWGQGNQVTVSS	high polyreactivity
QVQLVESGVGLVQAGGSLSLSCAASGRLFNYYAMGWYRQAPGKERELVAAISSSGGRTYYADSVKGRFTISRDNAKNTVYLQMNCLKPEDTAVFYCAAYDSLRYSTYDYWGQGTQVTVSS	high polyreactivity
QVQLVESGVGLVQAGGTLRISCAASGRISRGYAMGWYRQAPGKERELVAAISRRGDSTYYADSVKGRFTISRDNAKYTVYLQMNSLKPEDTAVYYCAARNGGRYAAGLDYWGQGTHVTVSS	high polyreactivity
QVQLVESGVGLVQAGGTLRLSCAPSGSTFSVYAMGWYRQPPGKERELVADITRGGSTYADSVKGRFTISRDNAKITVYLQMNSLKPEDTAVYYCAGEEVTPYPLYWSTREYDYWGQGTQVTVSS	low polyreactivity
QVQLVESGVGLVQAGVSLRISCAASGSIFDTYAMGWYRQAPGKERELVAAIRWTGGSTYYADSVKGRFTISRDNAKNTVYLQMNSLKREDTAVYYCATPSYGRPGFGYWGQGTQVTVSS	low polyreactivity
QVQLVESGVGLVQARGSLPLSCAASGSIFYYYVMGWYRQAPGKERELVAAIRSSGTSTYYADSVKGRFTISRDNAKNTVYLQRNSLKPEDTAVYYCNRARSSSRYDYWGQGTQVTVSS	low polyreactivity
QVQLVESGVGLVQARGSLRISCAASGFIFDLYAMGWYIQAHGKERELVAAITTSGGTTYYADSVKGRFTISRDNAKNTVYLQMNSLKPEDTAVYYCNALRRYVSVRPTKSDYWGQGTQVTVSS	high polyreactivity
QVQLVESGVGLVQARGSLRLSCAASGVISSINAVGWNRLAAAKEWELVAGIRARGTSPYYADSVKGRFTISRDNAKNTVYLQMNCLKPEDTAVYDCAADVDAGRHYGYWGQGTQVTVSS	low polyreactivity
QVQLVESGVGLVQARGSLRLSSASSGSILSTYAMGCYRQAPGKERELVASISSNAGSTYYADSVKGRFTISRDNAKNTVYLQMNSLKPEDTAVYYCNVKYKYYSPNYDYWGEGTQVTVSS	low polyreactivity
QVQLVESGVGLVQAVGSLRLSCAASGIIFPYYPMGWYRQAPGKERELVAAISTGGSTYYADSVKGRFTISRDNAKNTVYLQMNSLKPEDTAVYFCAARVARYRSTKRYDYWGQGTQVSVSS	high polyreactivity
QVQLVESGVGLVQAVGSLRLSCAASGRIFPAYVMGWYRQAPGKERELVATIDNGGGTYYADSVKGRFTISCDNAKYTVYLQMNSLKPEDTAVYYCARDRHVRWGLKRDYWGQGTQVTVSS	low polyreactivity
QVQLVESGVGLYQAGGSLRLSCAASGSIFEENAMVWYRQAPGKEMELVAAITIGGRTNYADSVKGRFTISRDNAKNTVYLEMNSLKPEDTAVYYCASDLSSIKYWLFWTRYYYWGQGTQVNVSS	low polyreactivity
QVQLVESGVRLVQAGGSLRLSCASSAITFGKNAMGWYRQAPGTESELVAAITRDGGTNYADSVKGRFTISRDNAMNTVYLHMNILKPEDTAVYYCAKRAYIYYGRYDYWGQGTQVTVSS	low polyreactivity

Sequence	polyreactivity (PSR sort gate)
QVQLVESGVRLVQAGGSLRLTCAASGNTFVAYAMGWYRQAPGKERDLVAGITRGGTTYYADSVKGRFTISRDNAKNSVYLQMNSLKPEDTAEYDCAARLGYRYNYWGQGTQVTVSS	high polyreactivity
QVQLVESGVVLVQAGGSLRLSCAASGYTFRVYTMGWYRQAPGKERELVAAISRRGSRTYYADSVKGRFTISRDYAKNTVYLQKNSLKPEDTAVYYCAAGIPYPDDYWGLGTQVTVSS	high polyreactivity
QVQLVESLGGLVQAGGSLRLSCAASGFTFTNYAMGWYRQAPGKERELVAAINSSGSTNYADSVKGRFTISRDNAKNTVYLQMNSLKPEDTAVYYCAVDYSYWVHGFWDDYDYWGQGTQVTVSS	low polyreactivity
QVQLVESLGGLVQAGGSLRLSFAASGFIFAKYAIGWYRKAAGKERELVAAITSGGSTNYADSVKGRFTISRDNAKNTVFLQMNSLKPEDTAVYYCNRGFDWCYRYRHYDYCGQGTQVTVSS	low polyreactivity
QVQLVESPGRLVQAGGSLRLSCDPTGRTFKIYALGSSRQAPGKESELVAAIRRSGGNTYYADSVKGRFTISRDNAKNTVYLQMNSLKPEDTAVYYCAVGRGSLRGRTDGGYWGQGTQVTVSS	high polyreactivity
QVQLVESRGALVQAGGSLRLSCAASGPIFDSYAMGWYRQATGKERELVATISRDSASTYYADSVKGRLTISRDNAKNTVYLQMNSLNPADTAVYYCSAGGSSSWAYNYWGHGTQVTVSS	low polyreactivity
QVQLVESRGCLVQAGGSLRLSCAASGSIFVNNAMGWYRPAPGYERELCAAITSGTRTNYADSVKGRFTISRDNAKNTVYLQMNSLKPEDTAVYYCATESAQYSWYYPGHPGYGYWGQGSQVTVSS	low polyreactivity
QVQLVESRGCLVQAGGSLRLSCAASGSISIKNAMGWYRQAPGKERELVATITYNGGSTYYADSVKGRFTISRDNAKNTVYLQMNSLKPEDTAVYYCARDAFEPYDVGEYYYWGQGTQVTVSS	low polyreactivity
QVQLVESRGGFVQARCSLRLSCDASGRIFYYYGMGWYRQAPGKERELVAAITRNTGRTYYADSVKGRFTISRDNAKNTVYLQMNSLKPEDSSVYYFARDRRTWSPYTRAYRRNDYWVQGTQVTVSS	high polyreactivity
QVQLVESRGGLVHAGGSLRLSCAASGSIFQSYYMGWYRQAPGKERELVAAISWSGSTTYYADSVKGRFTISRDNAKNTVYLQMNSLKPEDTAVYYCAVDSNPPDWWAVIYGYWGQGTQVTVSS	low polyreactivity
QVQLVESRGGLVQAGGSHRLSCAASGSIFGANAMGWYRQAPGKERELVAAITSGSGTNYADSVKGRFTISRDNAKNTVYLQMISLNPEDTAVYYCAAVVLYQGRYDYWGQGTQVTVSS	low polyreactivity
QVQLVESRGGLVQAGGSLPLSCAASGSIFSRNALGWYRQAPGKERELVAAITWSGGSTYYADSVKGRFTISRDNAKNTVYLQMNSLKAEDTAVYYCNAKRSSRIKQLEYDYWGKGTQVTVSS	high polyreactivity
QVQLVESRGGLVQAGGSLRLRCAASGFILDTYGIVWYRQAPGKERELVAAIYQSDVSTYYADSVKGRFTISRDNAKNTVYLQMNSLKPEDTAVYYCAADRGVLRWFCQVLYDYWGQGTQVTVSS	low polyreactivity
QVQLVESRGGLVQAGGSLRLSCAASGFIFGFYALGWYRQEPGTEMELVAAITWDGGSTYYADSVKGRFTISRDNAKNTVYLQMNSLKPEDTAVYYCAAYFQYQDVDYDYWGQGTQVTVSS	high polyreactivity
QVQLVESRGGLVQAGGSLRLSCAASGFIFYWNAMGWYRQAPGKEREFVATITWSGGSTYYADSVKGRFTISRDNAKNTVYLQMNSLKPEDTAVYYCNADVTWEDDYCGQGTQVTVSS	low polyreactivity
QVQLVESRGGLVQAGGSLRLSCAASGFTFWDNVIGWYRQAPGKERELVAAISNSGGRTYYADSVKGRFTISRDNEKNTVYLQMNILKPEDTAVYYCARYGRRHGYPILDYWGQGTQVTVSS	high polyreactivity
QVQLVESRGGLVQAGGSLRLSCAASGGTFSLNAMGWYRQAPGKERELVAANSKRSSTTYYADSVKGRFTISRDNAKNTVYLQMNSLKPEDTAVYYCAARVLRSRKPGPGYDYWGQGTQVTVSS	high polyreactivity
QVQLVESRGGLVQAGGSLRLSCAASGIIFHFYAMGWYRQAPGKERELVAAINSRGGSTYYADSVKGRFTISRDNAKNTVYLQMNSLKPEDTAVYYCAAQYLFYGHDYWGQGTQVTVSS	low polyreactivity
QVQLVESRGGLVQAGGSLRLSCAASGLIFASYAMGWNRQAPGKERELVAAISWSGGSTYYADSVKGRFTISRDNAKNTVYLQMNSLKPEDTAVYYCAAKRYAYGSLDYWGQGTQLTVSS	high polyreactivity
QVQLVESRGGLVQAGGSLRLSCAASGLTFLYNAMGWYRQAPGKERELVAAISQSAGSTYYADSVKGRFTISRDNAKNTVYLQMNSLKPEDTAVYYCAAEWDTPDLVIYDYWGQGTQVTVSS	low polyreactivity
QVQLVESRGGLVQAGGSLRLSCAASGRIFETNTMGWYRQAPGKEREFVAAITFSGGRTNYADSVKGRFTISRDNAKNTDYLPMNSLKPEDTAVYYCAAAGRRRKYYYWGQGTQVTVSS	high polyreactivity
